Measurements reported in patent publication US20240352117A1.

Target: natural TSLP
Assay: cell-based or functional assay

IC50 of inhibiting STAT5 phosphorylation in SW756-STAT5-Luciferase reporter gene cells induced by natural TSLP: 1.45 ng/mL
Substance: Tezepelumab (antibody)
